Experimental data taken from the supplement of paper PMC10567573.

B1: CLK3 (parent)
chain: FGEDYYGPSRSRHRRRSRERGPYR

Variants of: B1
Test: protein stability index of a GFP-peptide fusion (GPS, HEK-293T) (PSI 1-6); higher = more stable
Details: c terminus: a fixed tail appended
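Also: lentivirally expressed fusions sorted by FACS into six bins by GFP to DsRed ratio, PSI derived from sequencing read proportions per bin multiplied by bin number.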

Protein stability index, by site and new letter:
F1: I 4.57; V 5.33; N 4.44; S 5.1; C 4.54; Y 3.36; P 4.87; L 4.08; W 4.57; K 4.99; Q 5.13; G 4.79; A 4.83; R 5.35; H 4.65; E 5.1; T 5.16; D 5.21; M 4.92
D4: E 3.79; N 2.1; G 1.9; R 3.34; S 2.21; A 3.2; P 3.59; K 3.44; F 3.2; Q 2.55; Y 3.63; T 3.38; H 3.52; L 2.5; V 3.58; W 2.16; C 2.81; M 2.29; I 3.86
S9: I 2.47; C 2.35; E 2.73; N 2.82; W 2.17; G 3.16; Y 2.56; D 2.84; A 2.39; H 2.33; K 2.74; F 2.21; P 2.56; R 3; M 1.69; Q 2.63; V 2.38; L 2.55; T 2.58
G2: D 5.06; I 1.99; F 3.98; R 4.89; E 4.89; P 3.52; N 4.4; V 1.03; A 2.87; T 2.65; Q 2.49; Y 4.01; S 2.96; W 4.3; C 2.52; H 2.5; K 4.75; L 3.38; M 3.85
G7: A 3.32; I 4.23; Y 2.78; L 2.96; H 2.07; K 3.71; S 3.25; M 3.06; D 3.27; V 4.13; T 3.53; Q 2.82; E 4.32; W 2.06; R 3.07; C 2.95; N 2.06
P8: K 1.58; N 2.32; Y 2.99; A 1.71; W 1.53; T 2.61; V 1.42; R 1.44; H 1.61; I 2.19; E 2.56; L 1.51; G 2.3; Q 1.59; S 2.38; F 1.74; D 1.92; C 2.48
Y5: L 4.47; D 4.95; N 4.51; T 5.24; V 4.36; R 5.21; E 4.86; A 3.53; I 4.44; C 4.48; P 4.3; S 3.8; Q 4.7; K 5.11; F 3.11; M 3.5; H 4.64; G 4
E3: I 4.08; H 4.21; N 3.63; A 3.9; V 4.08; Y 4.08; M 3.83; T 3.75; L 4.43; W 3.63; K 3.96; S 1.73; P 3.41; Q 4.38; G 2.27; D 2.86; C 3.26; R 3.46; F 4.87
Y6: A 4.61; S 4.96; D 4.59; L 3.98; R 4.67; V 4.02; K 5.1; I 4.38; C 4.75; P 4.78; W 2.52; Q 5.36; G 5.15; N 4.47; T 4.27; F 2.4; E 4.84; H 4.07; M 4.17
